The target of series [1] is MeCP2 wild type (UniProt P51608 1-486). In words: EMSA; shift from 30 nM; 10 mM Tris pH 7.5, 1 mM EDTA, 100 mM KCl, 100 uM DTT, 5% glycerol, 10 ug/ml BSA, 30 min room temperature; 50 fmol probe in 5 ul; MeCP2 30-75 (nmol in Methods and legend, nM in Results). The settings on record: protein: recombinant; tags: His; label: IRDye700 at 5' of LUEGO (S27); three strands: S27 and S23 lie side by side (nick) on S24; blunt.

The target of series [2] is T1, MeCP2 R255X (UniProt P51608 1-254). Described as above. Particulars: protein: recombinant; tags: His; label: IRDye700 at 5' of LUEGO (S27); three strands: S27 and S23 lie side by side (nick) on S24; blunt.
The target in series [3] is T1, MeCP2 R255X. In words: EMSA; strongest shift, already at 30 nM; 10 mM Tris pH 7.5, 1 mM EDTA, 100 mM KCl, 100 uM DTT, 5% glycerol, 10 ug/ml BSA, 30 min room temperature; 50 fmol probe in 5 ul; MeCP2 30-75 (nmol in Methods and legend, nM in Results). Particulars: protein: recombinant; tags: His; label: IRDye700 at 5' of LUEGO (S27); three strands: S27 and S25 lie side by side (nick) on S26; blunt.

B1: SNCA intron 1 CpG1 probe, methylated (dsDNA)
DNA 1: GTGCCCTGGTCTGG
DNA 2: CTGGCTTTCGTCCTGCTTCTGATATTCCCTTCTC
DNA 3: GAGAAGGGAATATCAGAAGCAGGACGAAAGCCAGCCAGACCAGGGCAC
modifications: CpG 5mC, in vitro methylated (enzyme for the probe not stated in EMSA section)
Consider B1, for which the binding result in series [1] and in series [2] was “binds” in each case.

B2: SNCA intron 1 CpG2 probe, methylated (dsDNA)
DNA 1: GTGCCCTGGTCTGG
DNA 2: GCTGAGAGATTAGGCTGCTTCTCCGGGATCCGC
DNA 3: GCGGATCCCGGAGAAGCAGCCTAATCTCTCAGCCCAGACCAGGGCAC
modifications: CpG 5mC, in vitro methylated (enzyme for the probe not stated in EMSA section)
As to B2, the binding result in series [3] is “binds”.

The record behind these values is article PMC11415397, “The Alpha-Synuclein Gene (SNCA) is a Genomic Target of Methyl-CpG Binding Protein 2 (MeCP2)—Implications for Parkinson’s Disease and Rett Syndrome”.
